Assay results reported in PMC2708863.
Like-named read-outs stand apart in the source and are kept apart here.

Assays:
Assay in all cases: NMR titration
[1] = biological target: ^2–5FnI, second to fifth type I domains of human fibronectin (human)
[2] = biological target: ^4–5FnI, human fibronectin residues 183–275 (human) (UniProt P02751)
[3] = biological target: ^4–5FnI, human fibronectin residues 183–275 (human) (UniProt P02751); remark: listed apart in the source
[4] = biological target: ^2–3FnI, human fibronectin residues 93–182 (human) (UniProt P02751)

| Kd [1] [µM] | fractional saturation [1] [%] | Kd [2] [µM] | Kd [3] [µM] | Kd [4] [µM] | Substance |
| --- | --- | --- | --- | --- | --- |
| 125 | 25 | – | – | – | ^2–3FnIII, second and third type III domains of human fibronectin (domain or fragment) |
| – | – | 820 | 1200 | 710 | ^2FnIII, second type III domain of human fibronectin (domain or fragment) |
